Experimental findings from patent US20110052582A1 (Hoffmann-La Roche, published 2011) are described below.

The target of the assay is T1, Soluble CDCP1 extracellular domain (CDCP1-ECD) (SEQ ID NO:30) fused to Streptavidin Binding Protein (SBP) (human, UniProt Q9H5V8 30-663).
T1 construct: also called SBP-CDCP1-ECD
T1 sequence: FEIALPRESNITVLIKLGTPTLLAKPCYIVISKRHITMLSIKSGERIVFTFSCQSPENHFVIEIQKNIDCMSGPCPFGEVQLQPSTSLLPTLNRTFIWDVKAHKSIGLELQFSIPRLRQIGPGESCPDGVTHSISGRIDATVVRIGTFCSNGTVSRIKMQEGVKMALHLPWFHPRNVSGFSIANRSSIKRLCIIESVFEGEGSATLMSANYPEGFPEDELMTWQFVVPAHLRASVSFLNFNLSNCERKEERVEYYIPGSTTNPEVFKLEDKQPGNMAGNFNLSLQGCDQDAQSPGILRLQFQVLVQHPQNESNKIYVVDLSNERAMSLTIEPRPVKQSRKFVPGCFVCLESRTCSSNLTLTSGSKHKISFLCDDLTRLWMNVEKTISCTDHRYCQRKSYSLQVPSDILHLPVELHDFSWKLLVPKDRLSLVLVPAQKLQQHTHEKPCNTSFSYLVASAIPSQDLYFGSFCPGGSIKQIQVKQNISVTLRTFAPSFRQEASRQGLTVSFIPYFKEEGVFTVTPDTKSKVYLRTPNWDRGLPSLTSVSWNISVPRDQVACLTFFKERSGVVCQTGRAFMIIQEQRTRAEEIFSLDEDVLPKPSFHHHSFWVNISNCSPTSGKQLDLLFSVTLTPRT
Kind of assay: ELISA on captured SBP-CDCP1-ECD, ratio relative to chimeric CUB4 (chHC4). As to the method:
Soluble CDCP1 extracellular domain (CDCP1-ECD) (SEQ ID NO:30) fused to Streptavidin Binding Protein (SBP) was captured on a sreptavidine plate. To define optimal binding of the antibody to SBP-CDCP1-ECD, 384-well polystyrene plates (NUNC, streptavidin-coated) delivered by MicroCoat, Bernried, Germany (ID-No. 1734776-001) have been coated with pure and stepwise diluted HEK293 supernatant (in BSA/IMDM buffer: 100 mg/ml BSA Fraction V, Roche 10735078001, dissolved in Iscove's Modified Dulbeccos Medium). Using a calibration curve of mouse CUB4 antibodies the optimal dilution factor of the HEK293 supernatant in relation to the streptavidin binding capacity of the microtiter plate was identified. For the standard coating, SBP-CDCP1-ECD containing HEK293 supernatant was diluted (between 1:15 and 1:40) and incubated overnight at 2-8° C. (25 μl per well). Intensive washing of the microtiter plate is necessary to remove remaining unbound SBP-CDCP1-ECD.
Humanized CUB4 antibodies and/or reference antibody (chimeric (chHC4) CUB4 antibody comprising human constant region and mouse VH and VL of SEQ ID NO:1 and 2) were tested either undiluted or using a 12-step-dilution. 12.5 μl per well of each sample was incubated for 90 min at room temperature. After intensive washing using PBS-T (0.1% Tween 20 in PBS) 25 μl of either goat anti-human IgG antibodies coupled with HRP (Jackson ImmunoResearch, Code No: 109-036-098, dilution 1:10000) for human antibodies were added and incubated for 1 hour. After intensive washing the binding of the antibodies was detected with ABTS tablets (Roche Diagnostics GmbH, Cat. No.: 1112422). Absorbance at 405 nm/492 nm was measured using a standard photometer.

B1: hHC4-K2 / hLC4-L (antibody, V domains shown)
VH: EVQLVESGGGLVKPGGSLRLSCAASGFTFNSYGMSWVRQAPGKGLEWVSSISSGGSYTYYADSVKGRFTISRDNAKNSLYLQMNSLRAEDTAVYYCARHPDYDGVWFAYWGQGTLVTVSS
VL: EIVLTQSPATLSLSPGERATMSCRASSSVFYLHWYQQKPGQAPRLWIYDTSKLASGIPARFSGSGSGTDFTLTISSLEPEDFAVYYCQQWNSNPPTFGGGTKVEIK
Regarding B1, the relative binding ratio amounted to 0.21.

B2: hHC4-K2 / hLC4-a (antibody, V domains shown)
VH: EVQLVESGGGLVKPGGSLRLSCAASGFTFNSYGMSWVRQAPGKGLEWVSSISSGGSYTYYADSVKGRFTISRDNAKNSLYLQMNSLRAEDTAVYYCARHPDYDGVWFAYWGQGTLVTVSS
VL: EIVLTQSPATLSLSPGERATLSCSVSSSVFYVHWYQQKPGQAPRLLIYDTSKLASGIPARFSGSGSGTDFTLTISSLEPEDFAVYYCQQWNSNPPTFGGGTKVEIK
In the case of B2, the relative binding ratio amounted to 0.1.

B3: hHC4-K / hLC4-J (antibody, V domains shown)
VH: EVQLVESGGGLVKPGGSLRLSCAASGFTFNSYGMSWVRQAPGKGLEWVSSISSGGSYIYYADSVKGRFTISRDNAKNSLYLQMNSLRAEDTAVYYCARHPDYDGVWFAYWGQGTLVTVSS
VL: EIVMTQSPATLSLSPGERATMSCRASSSVFYLHWYQQKPGQAPRLWIYDTSKLASGIPARFSGSGSGTDFTLTISSLQPEDFAVYYCQQWNSNPPTFGGGTKVEIK
B3: the relative binding ratio is 0.01.

B4: hHC4-K / hLC4-I (antibody, V domains shown)
VH: EVQLVESGGGLVKPGGSLRLSCAASGFTFNSYGMSWVRQAPGKGLEWVSSISSGGSYIYYADSVKGRFTISRDNAKNSLYLQMNSLRAEDTAVYYCARHPDYDGVWFAYWGQGTLVTVSS
VL: EIVMTQSPATLSLSPGERATLSCRASSSVFYLSWYQQKPGQAPRLWIYDTSKLASGIPARFSGSGSGTDFTLTISSLQPEDFAVYYCQQWNSNPPTFGGGTKVEIK
Turning to B4, the binding result was “no binding”.

B5: hHC4-K / hLC4-M (antibody, V domains shown)
VH: EVQLVESGGGLVKPGGSLRLSCAASGFTFNSYGMSWVRQAPGKGLEWVSSISSGGSYIYYADSVKGRFTISRDNAKNSLYLQMNSLRAEDTAVYYCARHPDYDGVWFAYWGQGTLVTVSS
VL: EIVLTQSPATLSLSPGERATMSCGASSSVFYLHWYQQKPGLAPRLWIYDTSKLASGIPDRFSGSGSGTDFTLTISRLEPEDFAVYYCQQWNSNPPTFGGGTKVEIK
For the molecule B5, the relative binding ratio is 0.04.

B6: hHC4-K2 / hLC4-L2 (antibody, V domains shown)
VH: EVQLVESGGGLVKPGGSLRLSCAASGFTFNSYGMSWVRQAPGKGLEWVSSISSGGSYTYYADSVKGRFTISRDNAKNSLYLQMNSLRAEDTAVYYCARHPDYDGVWFAYWGQGTLVTVSS
VL: EIVLTQSPATLSLSPGERATMSCSVSSSVFYLHWYQQKPGQAPRLWIYDTSKLASGIPARFSGSGSGTDFTLTISSLEPEDFAVYYCQQWNSNPPTFGGGTKVEIK
With B6, the relative binding ratio was 0.2.

B7: hHC4-K / hLC4-a (antibody, V domains shown)
VH: EVQLVESGGGLVKPGGSLRLSCAASGFTFNSYGMSWVRQAPGKGLEWVSSISSGGSYIYYADSVKGRFTISRDNAKNSLYLQMNSLRAEDTAVYYCARHPDYDGVWFAYWGQGTLVTVSS
VL: EIVLTQSPATLSLSPGERATLSCSVSSSVFYVHWYQQKPGQAPRLLIYDTSKLASGIPARFSGSGSGTDFTLTISSLEPEDFAVYYCQQWNSNPPTFGGGTKVEIK
Turning to B7, the binding result was “no binding”.

B8: hHC4-a / hLC4-I (antibody, V domains shown)
VH: EVQLVESGGGLVKPGGSLRLSCAASGFTFNSYGMSWVRQAPGKGLEWVSTISSGGSYTYYPDSVKGRFTISRDNAKNSLYLQMNSLRAEDTAVYYCARHPDYDGVWFAYWGQGTLVTVSS
VL: EIVMTQSPATLSLSPGERATLSCRASSSVFYLSWYQQKPGQAPRLWIYDTSKLASGIPARFSGSGSGTDFTLTISSLQPEDFAVYYCQQWNSNPPTFGGGTKVEIK
For the molecule B8, the binding result is reported as “no binding”.

B9: hHC4-K / hLC4-b (antibody, V domains shown)
VH: EVQLVESGGGLVKPGGSLRLSCAASGFTFNSYGMSWVRQAPGKGLEWVSSISSGGSYIYYADSVKGRFTISRDNAKNSLYLQMNSLRAEDTAVYYCARHPDYDGVWFAYWGQGTLVTVSS
VL: EIVLTQSPATLSLSPGERATLSCSVSSSVFYVHWYQQKPGQAPRLLIYDTSKLASGIPARFSGSGSGTDYTLTISSLEPEDFAVYYCQQWNSNPPTFGGGTKVEIK
Take B9: the binding result was “no binding”.

B10: hHC4-K / hLC4-L (antibody, V domains shown)
VH: EVQLVESGGGLVKPGGSLRLSCAASGFTFNSYGMSWVRQAPGKGLEWVSSISSGGSYIYYADSVKGRFTISRDNAKNSLYLQMNSLRAEDTAVYYCARHPDYDGVWFAYWGQGTLVTVSS
VL: EIVLTQSPATLSLSPGERATMSCRASSSVFYLHWYQQKPGQAPRLWIYDTSKLASGIPARFSGSGSGTDFTLTISSLEPEDFAVYYCQQWNSNPPTFGGGTKVEIK
Turning to B10, the relative binding ratio stood at 0.02.

B11: hHC4-K2 / hLC4-b (antibody, V domains shown)
VH: EVQLVESGGGLVKPGGSLRLSCAASGFTFNSYGMSWVRQAPGKGLEWVSSISSGGSYTYYADSVKGRFTISRDNAKNSLYLQMNSLRAEDTAVYYCARHPDYDGVWFAYWGQGTLVTVSS
VL: EIVLTQSPATLSLSPGERATLSCSVSSSVFYVHWYQQKPGQAPRLLIYDTSKLASGIPARFSGSGSGTDYTLTISSLEPEDFAVYYCQQWNSNPPTFGGGTKVEIK
For the molecule B11, the relative binding ratio was 0.12.

B12: hHC4-a / hLC4-M (antibody, V domains shown)
VH: EVQLVESGGGLVKPGGSLRLSCAASGFTFNSYGMSWVRQAPGKGLEWVSTISSGGSYTYYPDSVKGRFTISRDNAKNSLYLQMNSLRAEDTAVYYCARHPDYDGVWFAYWGQGTLVTVSS
VL: EIVLTQSPATLSLSPGERATMSCGASSSVFYLHWYQQKPGLAPRLWIYDTSKLASGIPDRFSGSGSGTDFTLTISRLEPEDFAVYYCQQWNSNPPTFGGGTKVEIK
With B12, the relative binding ratio amounted to 0.8.

B13: hHC4-K2 / hLC4-M (antibody, V domains shown)
VH: EVQLVESGGGLVKPGGSLRLSCAASGFTFNSYGMSWVRQAPGKGLEWVSSISSGGSYTYYADSVKGRFTISRDNAKNSLYLQMNSLRAEDTAVYYCARHPDYDGVWFAYWGQGTLVTVSS
VL: EIVLTQSPATLSLSPGERATMSCGASSSVFYLHWYQQKPGLAPRLWIYDTSKLASGIPDRFSGSGSGTDFTLTISRLEPEDFAVYYCQQWNSNPPTFGGGTKVEIK
For the molecule B13, the relative binding ratio was found to be 0.28.

B14: hHC4-a / hLC4-L2 (antibody, V domains shown)
VH: EVQLVESGGGLVKPGGSLRLSCAASGFTFNSYGMSWVRQAPGKGLEWVSTISSGGSYTYYPDSVKGRFTISRDNAKNSLYLQMNSLRAEDTAVYYCARHPDYDGVWFAYWGQGTLVTVSS
VL: EIVLTQSPATLSLSPGERATMSCSVSSSVFYLHWYQQKPGQAPRLWIYDTSKLASGIPARFSGSGSGTDFTLTISSLEPEDFAVYYCQQWNSNPPTFGGGTKVEIK
Consider B14, for which the relative binding ratio was found to be 0.58.

B15: hHC4-K / hLC4-c (antibody, V domains shown)
VH: EVQLVESGGGLVKPGGSLRLSCAASGFTFNSYGMSWVRQAPGKGLEWVSSISSGGSYIYYADSVKGRFTISRDNAKNSLYLQMNSLRAEDTAVYYCARHPDYDGVWFAYWGQGTLVTVSS
VL: EIVMTQSPATLSVSPGERATLSCSVSSSVFYVHWYQQKPGQAPRLLIYDTSKLASGIPARFSGSGSGTEFTLTISSLQSEDFAVYYCQQWNSNPPTFGGGTKVEIK
As to B15, the binding result was “no binding”.

B16: hHC4-a / hLC4-L (antibody, V domains shown)
VH: EVQLVESGGGLVKPGGSLRLSCAASGFTFNSYGMSWVRQAPGKGLEWVSTISSGGSYTYYPDSVKGRFTISRDNAKNSLYLQMNSLRAEDTAVYYCARHPDYDGVWFAYWGQGTLVTVSS
VL: EIVLTQSPATLSLSPGERATMSCRASSSVFYLHWYQQKPGQAPRLWIYDTSKLASGIPARFSGSGSGTDFTLTISSLEPEDFAVYYCQQWNSNPPTFGGGTKVEIK
B16: the relative binding ratio came out at 0.55.
